According to PMC10770428 (Current Research in Structural Biology, 2023):

T1: C-terminal FH1-FH2 FMN1 (amino acids 870–1466) (mouse, UniProt Q05860 870-1466)
T1 sequence (looked up): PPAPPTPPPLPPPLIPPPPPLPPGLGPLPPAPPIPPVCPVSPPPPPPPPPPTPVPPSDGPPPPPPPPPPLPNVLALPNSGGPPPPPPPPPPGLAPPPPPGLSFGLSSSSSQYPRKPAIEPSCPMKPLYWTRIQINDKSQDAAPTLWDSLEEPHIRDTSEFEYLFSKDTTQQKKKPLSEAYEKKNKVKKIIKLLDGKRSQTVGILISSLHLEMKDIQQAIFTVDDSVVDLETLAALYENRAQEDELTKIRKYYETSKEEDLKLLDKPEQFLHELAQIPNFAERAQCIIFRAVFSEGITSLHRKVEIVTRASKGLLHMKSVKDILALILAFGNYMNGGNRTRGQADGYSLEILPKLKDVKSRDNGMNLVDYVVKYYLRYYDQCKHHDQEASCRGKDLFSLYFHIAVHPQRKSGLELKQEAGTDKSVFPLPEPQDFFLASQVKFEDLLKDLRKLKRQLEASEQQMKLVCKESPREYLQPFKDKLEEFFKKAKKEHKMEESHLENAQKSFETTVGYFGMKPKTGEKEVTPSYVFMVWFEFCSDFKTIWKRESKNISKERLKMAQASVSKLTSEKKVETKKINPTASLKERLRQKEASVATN

B1: N-terminal WW1-WW2 FNBP4 (amino acids 214–629) (domain or fragment, UniProt Q8N3X1 214-629, looked up)
chain: GIEMGDWQEVWDENTGCYYYWNTQTNEVTWELPQYLATQVQGLQHYQPSSVPGAETSFVVNTDIYSKEKTISVSSSKSGPVIAKREVKKEVNEGIQALSNSEEEKKGVAASLLAPLLPEGIKEEEERWRRKVICKEEPVSEVKETSTTVEEATTIVKPQEIMLDNIEDPSQEDLCSVVQSGESEEEEEQDTLELELVLERKKAELRALEEGDGSVSGSSPRSDISQPASQDGMRRLMSKRGKWKMFVRATSPESTSRSSSKTGRDTPENGETAIGAENSEKIDENSDKEMEVEESPEKIKVQTTPKVEEEQDLKFQIGELANTLTSKFEFLGINRQSISNFHVLLLQTETRIADWREGALNGNYLKRKLQDAAEQLKQYEINATPKGWSCHWDRDHRRYFYVNEQSGESQWEFPDG

Experiments:
[1] = target: B1; experiment: SPR
[2] = target: T1, C-terminal FH1-FH2 FMN1 (amino acids …); experiment: SPR

Binder	Kd [1] [nM]	koff [1] [s⁻¹]	kon [1] [M⁻¹ s⁻¹]	Kd [2] [nM]	koff [2] [s⁻¹]	kon [2] [M⁻¹ s⁻¹]
FH1 FMN1 (amino acids 870–970) (domain or fragment, mouse, UniProt Q05860 870-970, looked up) PPAPPTPPPLPPPLIPPPPPLPPGLGPLPPAPPIPPVCPVSPPPPPPPPPPTPVPPSDGPPPPPPPPPPLPNVLALPNSGGPPPPPPPPPPGLAPPPPPGL	0.56	0.0107	1.94e+07			
WW1 FNBP4 (amino acids 214–430) (domain or fragment, UniProt Q8N3X1 214-430, looked up) GIEMGDWQEVWDENTGCYYYWNTQTNEVTWELPQYLATQVQGLQHYQPSSVPGAETSFVVNTDIYSKEKTISVSSSKSGPVIAKREVKKEVNEGIQALSNSEEEKKGVAASLLAPLLPEGIKEEEERWRRKVICKEEPVSEVKETSTTVEEATTIVKPQEIMLDNIEDPSQEDLCSVVQSGESEEEEEQDTLELELVLERKKAELRALEEGDGSVSG				2	0.00127	637000
B1				1.84	0.000571	310000
